Numbering of substitutions follows the chain as printed. Numbers in names are those of the source. One block for each molecule: values may come before it. No end group written: not given here.
T1: kindlin-2 (KIND2) (UniProt Q8CIB5 1-680)
T1 chain: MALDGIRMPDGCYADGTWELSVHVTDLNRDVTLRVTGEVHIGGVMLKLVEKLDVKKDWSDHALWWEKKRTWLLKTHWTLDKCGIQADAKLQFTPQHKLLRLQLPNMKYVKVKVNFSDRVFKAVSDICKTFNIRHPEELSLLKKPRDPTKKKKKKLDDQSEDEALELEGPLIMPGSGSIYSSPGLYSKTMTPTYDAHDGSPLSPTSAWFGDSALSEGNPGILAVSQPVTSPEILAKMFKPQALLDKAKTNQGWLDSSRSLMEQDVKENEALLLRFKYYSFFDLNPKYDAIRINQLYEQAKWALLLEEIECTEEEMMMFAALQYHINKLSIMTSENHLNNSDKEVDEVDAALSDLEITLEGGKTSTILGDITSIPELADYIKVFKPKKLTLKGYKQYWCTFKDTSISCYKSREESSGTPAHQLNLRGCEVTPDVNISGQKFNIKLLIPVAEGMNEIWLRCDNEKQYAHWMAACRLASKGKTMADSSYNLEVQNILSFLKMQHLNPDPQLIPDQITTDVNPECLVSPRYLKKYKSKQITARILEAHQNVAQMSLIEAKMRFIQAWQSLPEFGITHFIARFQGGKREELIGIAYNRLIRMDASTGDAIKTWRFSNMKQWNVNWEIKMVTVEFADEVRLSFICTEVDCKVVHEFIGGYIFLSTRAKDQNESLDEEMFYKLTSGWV

T2: β3 transmembrane and cytoplasmic tail polypeptide (β3-TM–CT) in nanodiscs (UniProt O54890 715-787, biotin (biotin-maleimide))
T2 chain: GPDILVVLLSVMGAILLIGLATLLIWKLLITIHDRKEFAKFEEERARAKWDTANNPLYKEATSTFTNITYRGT

T3: β1 transmembrane and cytoplasmic tail polypeptide (β1-TM–CT) in nanodiscs (UniProt P05556 726-798, biotin (biotin-maleimide))
T3 chain: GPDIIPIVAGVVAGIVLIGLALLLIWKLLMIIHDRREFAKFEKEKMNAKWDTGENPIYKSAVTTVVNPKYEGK

T4: α5-TM lacking the cytoplasmic domain (tailless α5-TM) in nanodiscs (UniProt P11688 993-1025, biotin (biotin-maleimide))
T4 chain: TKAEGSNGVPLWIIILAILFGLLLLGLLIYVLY

B1: talin-1 head domain (THD1) (domain or fragment)
chain: MVALSLKISIGNVVKTMQFEPSTMVYDACRMIRERIPEALAGPPNDFGLFLSDDDPKKGIWLEAGKALDYYMLRNGDTMEYRKKQRPLKIRMLDGTVKTIMVDDSKTVTDMLMTICARIGITNHDEYSLVRELMEEKKDEGTGTLRKDKTLLRDEKKMEKLKQKLHTDDELNWLDHGRTLREQGVEEHETLLLRRKFFYSDQNVDSRDPVQLNLLYVQARDDILNGSHPVSFDKACEFAGFQCQIQFGPHNEQKHKAGFLDLKDFLPKEYVKQKGERKIFQAHKNCGQMSEIEAKVRYVKLARSLKTYGVSFFLVKEKMKGKNKLVPRLLGITKECVMRVDEKTKEVIQEWSLTNIKRWAASPKSFTLDFGDYQDGYYSVQTTEGEQIAQLIAGYIDIILKKKKS
B2: THD1^K402E (domain or fragment)
chain: B1 chain with K402E
B3: KIND2^Y13A (natural protein)
chain: T1 chain with Y13A

Columns and labels:
[1] = target: ATTO 488-labelled β1-CT (488–β1-CT) (UniProt P05556); test: MST; ATTO 488-labelled β-CT peptide (50–200 nM) held constant, one unlabelled protein titrated; 20 mM Tris pH 7.5, 200 mM NaCl, 1 mM TCEP, 0.05% Tween-20; apparent affinities (near-saturation only)
[2] = target: ATTO 488-labelled β1-CT^Y795A (UniProt P05556); test: as above
[3] = target: ATTO 488-labelled β1-CT^Y783A (UniProt P05556); test: as above
[4] = target: integrin β1A cytoplasmic tail (β1-CT), recombinant (UniProt P05556); test: NMR titration; isotope-labelled β1-CT observed; TLN1-F3 and ΔKIND2 (wild type or K402E / Y13A) added together, ternary complex; 20 mM Tris, 200 mM NaCl, 1 mM DTT, pH 7.5, 298 K
kindlin-2 (KIND2) = target: T1, kindlin-2 (KIND2); test: MST
[5] = target: B1; test: MST
[6] = target: T2, β3 transmembrane and cytoplasmic tail …; test: FACS; 10% PIP2 nanodiscs
[7] = target: T3, β1 transmembrane and cytoplasmic tail …; test: FACS; 10% PIP2 nanodiscs
[8] = target: T5, β1-TM–CT Y783A (THD1-binding impaired) in nanodiscs (UniProt P09055 726-798, Y783A, biotin (biotin-maleimide)); test: FACS; 10% PIP2 nanodiscs
[9] = target: β1-TM–CT Y795A (KIND2-binding impaired) in nanodiscs (UniProt P09055 726-798, Y795A, biotin (biotin-maleimide)); test: FACS; 10% PIP2 nanodiscs
[10] = target: T4, α5-TM lacking the cytoplasmic domain …; test: FACS; 10% PIP2 nanodiscs
[11] = target: T2, β3 transmembrane and cytoplasmic tail …; test: FACS; 10% PIP3 nanodiscs
[12] = target: T3, β1 transmembrane and cytoplasmic tail …; test: FACS; 10% PIP3 nanodiscs
[13] = target: T5, β1-TM–CT Y783A (THD1-binding impaired) …; test: FACS; 10% PIP3 nanodiscs
[14] = target: T4, α5-TM lacking the cytoplasmic domain …; test: FACS; 10% PIP3 nanodiscs

ATTO 488-labelled β1-CT^Y795A, sequence (P05556 752-798 Y795A): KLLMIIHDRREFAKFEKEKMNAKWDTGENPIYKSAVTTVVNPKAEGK
ATTO 488-labelled β1-CT^Y783A, sequence (P05556 752-798 Y783A): as the sequence (P05556 752-798 Y795A) above, with Y32A, A44Y counted along it

Kd of the kindlin contribution (fit of concentrations up to 5 µM) [1]: 2900 nM
Kd of the talin contribution (fit of concentrations above 5 µM) [1]: 25000 nM
Kd [2]: 470000 nM
Kd [3]: 4800 nM
Molecule: TLN1-F3–ΔKIND2 fusion protein

Kd of the kindlin contribution (fit of concentrations up to 5 µM) [1]: 2900 nM
Kd of the talin contribution (fit of concentrations above 5 µM) [1]: 16000 nM
Molecule: TLN1-F3–ΔKIND2^Y13A fusion protein

decrease of the signal intensities of the membrane-proximal α-helix of β1-CT (H758–K770), 1:0.8 against 1:0.2, with TLN1-F3 added together [4]: 50%
Molecule: KIND2 lacking the flexible loop in F1 and the PH domain (ΔKIND2) (domain or fragment)

decrease of the signal intensities of the membrane-proximal α-helix of β1-CT (H758–K770), 1:0.8 against 1:0.2, with TLN1-F3 K402E added together [4]: 10%
decrease of the signal intensities of the membrane-proximal α-helix of β1-CT (H758–K770), 1:0.8 against 1:0.2, with TLN1-F3 added together [4]: 30%
Molecule: ΔKIND2^Y13A (domain or fragment)

Kd (kindlin-2 (KIND2)): 15500 nM
Kd [5]: 511000 nM
Molecule: {ATTO 488}-KLLITIHDRKEFAKFEEERARAKWDTANNPLAKEATSTFTNITYRGT [ATTO 488-labelled β3-CT^Y772A]

Molecule: B1
IC50 [6]: 66 nM
IC50 [7]: 73 nM
IC50 [8]: 307 nM
IC50 [9]: 98 nM
IC50 [10]: 274 nM
IC50 [11]: 83 nM
IC50 [12]: 92 nM
IC50 [13]: 427 nM
IC50 [14]: 411 nM

Molecule: B2
IC50 [6]: 70 nM
IC50 [7]: 131 nM
IC50 [10]: 246 nM
IC50 [11]: 51 nM
IC50 [12]: 54 nM
IC50 [14]: 211 nM

Molecule: B3
IC50 [6]: 219 nM
IC50 [7]: 98 nM
IC50 [10]: 162 nM
IC50 [11]: 173 nM
IC50 [14]: 128 nM
